Reference: FireProtDB (doi:10.1110/ps.8.7.1500)

Conditions: Aspergillus oryzae (strain ATCC 42149 / RIB 40), Thermal, DSC, whole UniProt chain shown

B1: Guanyl-specific ribonuclease T1 wild type, P00651 (protein)
chain: MMYSKLLTLTTLLLPTALALPSLVERACDYTCGSNCYSSSDVSTAQAAGYQLHEDGETVGSNSYPHKYNNYEGFDFSVSSPYYEWPILSSGDVYSGGSPGADRVVFNENNQLAGVITHTGASGNNFVECT
pH 2.8, 17.1 °C, glycine 10 mM
  unfolding free energy: 5.6 kcal/mol
pH 2.8, 21.1 °C, glycine 10 mM
  unfolding free energy: 4.9 kcal/mol
pH 2.8, 24.9 °C, glycine 10 mM
  unfolding free energy: 4.3 kcal/mol
pH 2.8, 25 °C, glycine 10 mM
  unfolding free energy: 4.3 kcal/mol
pH 2.8, 27.8 °C, glycine 10 mM
  unfolding free energy: 3.7 kcal/mol
pH 3, 25 °C, glycine 10 mM
  unfolding free energy: 5.2 kcal/mol
pH 3, glycine 10 mM
  Tm: 49.1 °C
  unfolding enthalpy (calorimetric): 82.7 kcal/mol
pH 3.6, 25 °C, acetate 10 mM
  unfolding free energy: 6.7 kcal/mol
pH 4, 25 °C, acetate 10 mM
  unfolding free energy: 7.2 kcal/mol
pH 5, 25 °C, acetate 10 mM
  unfolding free energy: 8.1 kcal/mol
pH 5, acetate 10 mM
  Tm: 58.6 °C
  unfolding enthalpy (calorimetric): 99.1 kcal/mol
pH 6, 25 °C, MOPS or HEPES 10 mM
  unfolding free energy: 8.5 kcal/mol
pH 6, MOPS or HEPES 10 mM
  Tm: 60.3 °C
  unfolding enthalpy (calorimetric): 101 kcal/mol
pH 7, MOPS or HEPES 10 mM
  Tm: 61.8 °C
  unfolding enthalpy (calorimetric): 102 kcal/mol
